In PMC9943680 (Nucleic Acids Research, 2023):

What was measured:
[1] = biological target: T1, TR4DBD-CTE R191A (Homo sapiens, UniProt P49116 113-200, R191A); assay: MST
T1 sequence: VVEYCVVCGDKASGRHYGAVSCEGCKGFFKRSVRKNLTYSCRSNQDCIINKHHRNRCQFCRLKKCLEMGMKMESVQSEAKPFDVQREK

[2] = biological target: T2, TR4DBD-CTE S189A (Homo sapiens, UniProt P49116 113-200, S189A); assay: MST
T2 sequence: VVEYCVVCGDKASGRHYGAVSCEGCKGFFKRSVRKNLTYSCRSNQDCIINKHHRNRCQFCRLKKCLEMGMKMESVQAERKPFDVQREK

[3] = biological target: T3, TR4DBD-CTE R168A (Homo sapiens, UniProt P49116 113-200, R168A); assay: MST
T3 sequence: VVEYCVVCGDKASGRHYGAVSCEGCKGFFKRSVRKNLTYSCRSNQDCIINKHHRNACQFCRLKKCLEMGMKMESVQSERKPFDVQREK

[4] = biological target: T4, TR4DBD-CTE R127C (Homo sapiens, UniProt P49116 113-200, R127C); assay: MST
T4 sequence: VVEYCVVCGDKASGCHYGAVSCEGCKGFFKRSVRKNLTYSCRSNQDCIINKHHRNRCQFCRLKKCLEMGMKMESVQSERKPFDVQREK

[5] = biological target: T5, TR4DBD-CTE N167K (Homo sapiens, UniProt P49116 113-200, N167K); assay: MST
T5 sequence: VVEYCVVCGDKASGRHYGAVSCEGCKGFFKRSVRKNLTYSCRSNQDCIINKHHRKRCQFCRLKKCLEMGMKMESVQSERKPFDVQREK

[6] = biological target: T6, TR4_(341–596), ligand-binding domain of human testicular receptor 4 (human, UniProt P49116 341-596); assay: crystal structure
T6 sequence (looked up): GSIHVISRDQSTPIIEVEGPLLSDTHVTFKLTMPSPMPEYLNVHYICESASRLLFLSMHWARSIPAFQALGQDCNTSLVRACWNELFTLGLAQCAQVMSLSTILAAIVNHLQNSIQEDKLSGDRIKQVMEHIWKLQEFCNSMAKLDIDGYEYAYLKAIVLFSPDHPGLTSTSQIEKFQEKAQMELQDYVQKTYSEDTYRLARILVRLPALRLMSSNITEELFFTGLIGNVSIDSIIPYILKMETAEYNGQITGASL

[7] = biological target: T7, TR4DBD (Homo sapiens, UniProt P49116 113-189); assay: MST
T7 sequence: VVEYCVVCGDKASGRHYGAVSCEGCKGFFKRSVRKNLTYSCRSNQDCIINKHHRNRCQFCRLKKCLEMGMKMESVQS

B1: idRE, 23 bp DR1 (dsDNA)
DNA 1: GGCAGAGGTCAAAGGTCAAACGT
DNA 2: ACGTTTGACCTTTGACCTCTGCC
For B1, which binding signal [1] is on record?
The binding signal was ~60 fold decrease vs WT.

And the binding signal [2]?
Its binding signal is 12 fold decrease vs WT.

And the binding signal [3]?
Its binding signal is 12 fold decrease vs WT.

What about the binding signal [4] of the same binder?
Its binding signal is ~280 fold increase vs WT.

And the binding signal [5]?
The binding signal was > 60 fold increase vs WT.

Does QQPTYVALSYINRFMTDAARREQES (domain or fragment, human, UniProt Q86VZ6 51-75, looked up) [JAZF1_(51–75)] bind [6]?
Result: binds

B2: 18 bp DR1 (dsDNA)
DNA 1: GGCAGAGGTCAAAGGTCA
DNA 2: CTGACCTTTGACCTCTGC
Which Kd [7] does the source give for B2 here?
Its Kd is 38.3 µM.
